B1: L5-mIgG2a: mouse/human chimeric anti-TEM8 IgG: human L5 variable domains fused with mouse IgG2a constant domains (antibody, V domains shown)
VH: QVQLVESGGGLVQPGGSLRLSCAASGFTFNSYGLSWVRQAPGKGLEWVSNISSNGSYTYYADSVKGRFTISRDNSKNTLYLQMNSLRAEDTAVYYCARAGYGLFDVWGQGTLVTVSSVL
VL: DIELTQPPSVSVAPGQTARISCSGDKLREYYVHWYQQKPGQAPVLVIYGDNKRPSGIPERFSGSNSGNTATLTISGTQAEDEADYYCSSWAGSRSGTVFGGGTKLTVL

Tests used:
NCI-H460 tumors = assay: NCI-H460 lung cancer xenograft in nude mice; assay type: in vivo, mouse; details: L2-mIgG2a 20 mg/kg 3 times per week; DMXAA 25 mg/kg then 5 mg/kg/day for two days; tumors 100 mm^3
CMG2 (CHO-CMG2) = CMG2 (CHO-CMG2) (Homo sapiens, UniProt P58335); assay: Flow cytometry staining of CHO-CMG2 cells; assay type: binding; details: CMG2 transfectants of CHO/PR230
Protocol: (§1) Trypsinized cells were rinsed in cold PBS/0.5% BSA (PBS/BSA) and labeled with anti-TEM8 Fabs (human) or full IgG (human-mouse) primary antibodies in PBS/BSA containing 10% goat serum at 4° C. Cells were rinsed with PBS/BSA and incubated with FITC-conjugated goat anti-human Fab or anti-mouse IgG secondary antibodies (Jackson Immunoresearch, West Grove, Pa.), rinsed again, and analyzed on a FACScalibur flow cytometer (Becton Dickinson, Franklin Lakes, N.J.) using CellQuest™ Software.

human TEM8 (CHO-TEM8) = human TEM8 (CHO-TEM8) (Homo sapiens, UniProt Q9H6X2); assay: Flow cytometry staining of CHO-TEM8 cells; assay type: binding
Protocol: as §1

HCT-116 tumors = assay: HCT-116 colon xenograft in nude mice; details: treatment 3 times per week from 50 mm^3
[1] = tested on: UACC human melanoma xenografts; assay: UACC melanoma xenograft in nude mice; assay type: in vivo, mouse; details: dose-escalation study, 15 mg/kg 3× per week
[2] = tested on: CHO-TEM8 cells treated with lethal toxin; assay type: cell-based, Chinese Hamster

CMG2 (CHO-CMG2), sequence (P58335 34-489, species assumed): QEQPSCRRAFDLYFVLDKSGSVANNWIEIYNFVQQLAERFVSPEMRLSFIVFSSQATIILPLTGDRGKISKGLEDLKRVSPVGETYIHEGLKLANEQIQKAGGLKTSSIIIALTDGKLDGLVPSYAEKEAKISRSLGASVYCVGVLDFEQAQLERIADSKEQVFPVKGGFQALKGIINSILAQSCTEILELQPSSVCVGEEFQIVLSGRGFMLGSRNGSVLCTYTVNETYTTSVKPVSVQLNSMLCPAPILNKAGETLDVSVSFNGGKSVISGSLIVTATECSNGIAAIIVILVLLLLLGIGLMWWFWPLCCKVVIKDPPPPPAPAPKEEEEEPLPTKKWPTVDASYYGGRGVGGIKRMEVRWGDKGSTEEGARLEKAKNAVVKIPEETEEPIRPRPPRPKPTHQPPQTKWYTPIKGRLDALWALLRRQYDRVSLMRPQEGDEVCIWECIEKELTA
human TEM8 (CHO-TEM8), sequence (Q9H6X2 33-564): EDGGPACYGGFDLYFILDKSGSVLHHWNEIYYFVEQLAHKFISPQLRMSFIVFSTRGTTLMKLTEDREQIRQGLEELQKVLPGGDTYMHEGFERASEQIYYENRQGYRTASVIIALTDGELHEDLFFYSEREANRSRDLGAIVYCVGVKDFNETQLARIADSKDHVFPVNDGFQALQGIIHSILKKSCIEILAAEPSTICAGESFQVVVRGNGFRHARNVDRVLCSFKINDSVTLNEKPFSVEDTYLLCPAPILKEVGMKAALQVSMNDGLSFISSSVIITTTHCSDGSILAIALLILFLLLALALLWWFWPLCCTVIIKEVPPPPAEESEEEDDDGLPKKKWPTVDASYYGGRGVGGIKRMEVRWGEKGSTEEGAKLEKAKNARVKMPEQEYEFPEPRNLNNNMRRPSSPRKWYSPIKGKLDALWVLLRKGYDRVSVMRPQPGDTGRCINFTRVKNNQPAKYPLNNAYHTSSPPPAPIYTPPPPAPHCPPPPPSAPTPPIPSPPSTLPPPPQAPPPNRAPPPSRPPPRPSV

Row | Molecule | NCI-H460 tumor growth (NCI-H460 tumors) | reactivity with CMG2 (CMG2 (CHO-CMG2)) | staining of CHO-TEM8 cells (human TEM8 (CHO-TEM8)) | HCT-116 tumor growth (HCT-116 tumors) | UACC tumor growth inhibition at 15 mg/kg [1] | EC50 of protection from lethal toxin toxicity [2] [µg/mL]
1 | Cc1ccc2c(=O)c3cccc(CC(=O)O)c3oc2c1C [DMXAA, 5,6-dimethylxanthenone-4-acetic acid, reference compound] | significantly delayed tumor growth | – | – | – | – | –
2 | B1 | – | failed to react with CMG2 | stained | inhibited HCT-116 tumor growth | partial growth inhibition | 2.575
